Test results: PMC8464079
Numbering of substitutions follows the chain as printed.

How the values were obtained:
Assay in all cases: fluorescence polarization
MUT-4A = molecular target: T1, MUT-4A (Caenorhabditis elegans, UniProt Q09487 172-535, N318C;H319R)
T1 sequence: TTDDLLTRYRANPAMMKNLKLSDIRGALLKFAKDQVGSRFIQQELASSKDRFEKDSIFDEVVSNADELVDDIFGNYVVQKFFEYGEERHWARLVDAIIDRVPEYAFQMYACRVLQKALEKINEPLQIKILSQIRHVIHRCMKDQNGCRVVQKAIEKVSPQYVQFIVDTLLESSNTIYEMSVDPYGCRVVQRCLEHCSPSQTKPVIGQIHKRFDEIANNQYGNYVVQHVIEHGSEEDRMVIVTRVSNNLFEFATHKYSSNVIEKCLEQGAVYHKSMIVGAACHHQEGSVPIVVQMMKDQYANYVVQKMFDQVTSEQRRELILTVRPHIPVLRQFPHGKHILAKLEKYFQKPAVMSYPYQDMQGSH

MUT-4N = molecular target: T2, MUT-4N (Caenorhabditis elegans, UniProt Q09487 172-535, N318A;H319A;Q322A)
T2 sequence: T1 sequence with C147A, R148A, Q151A

MUT-#12 (K513E) = molecular target: T3, MUT-#12 (K513E) (Caenorhabditis elegans, UniProt Q09487 172-535, K513E)
T3 sequence: T1 sequence with C147N, R148H, K342E

MUT-#13 (K513R) = molecular target: T4, MUT-#13 (K513R) (Caenorhabditis elegans, UniProt Q09487 172-535, K513R)
T4 sequence: T1 sequence with C147N, R148H, K342R

MUT-8G = molecular target: T5, MUT-8G (Caenorhabditis elegans, UniProt Q09487 172-535, N472S;Y473N;Q476E)
T5 sequence: T1 sequence with C147N, R148H, N301S, Y302N, Q305E

MUT-#10 (Q476E) = molecular target: T6, MUT-#10 (Q476E) (Caenorhabditis elegans, UniProt Q09487 172-535, Q476E)
T6 sequence: T1 sequence with C147N, R148H, Q305E

B1: PBE-5A FAM (ssRNA)
RNA: UGUAAAUA
Kd (MUT-4A): 0.44 ± 0.39 nM | Kd (MUT-4N): 161 ± 22 nM | Kd (MUT-#12 (K513E)): 209 ± 29.1 nM | Kd (MUT-#13 (K513R)): 60 ± 13.2 nM | binding result (MUT-8G): no binding | Kd (MUT-#10 (Q476E)): 519 ± 63.1 nM
